Measurements: patent US20030108957A1

Legend:
GroEL (E. coli) = GroEL (E. coli) (UniProt P0A6F5)
[1] = target: guanyl-nucleotide binding protein Ras (21 kDa); assay: competition fluorescence polarization: 4 µM Ras (negative control) preincubated with 4 µM unlabeled pyrrhocoricin, then 1 nM fluorescein-K-pyrrhocoricin; used as the correction for the DnaK and GroEL readings
[2] = target: guanyl-nucleotide binding protein Ras (21 kDa); assay: competition fluorescence polarization: 4 µM Ras (negative control) preincubated with 8 µM unlabeled pyrrhocoricin, then 1 nM fluorescein-K-pyrrhocoricin; used as the correction for the DnaK and GroEL readings

Substance	millipolarization over the background (GroEL (E. coli))	decrease of the millipolarization reading after preincubation (millipolarization units) [1]	decrease of the millipolarization reading after preincubation (millipolarization units) [2]
fluorescein-labeled β-tubulin fragment aa434-445 (peptide)	50%	–	–
pyrrhocoricin (unlabeled, all L-amino acids, without sugar) (peptide)	–	16	27
